One molecule from patent US20250043290A1, “RNA SEQUENCES THAT INDUCE FLUORESCENCE OF SMALL MOLECULE FLUOROPHORES, MOLECULAR COMPLEXES, SENSORS, AND METHODS OF USE THEREOF” (CORNELL UNIVERSITY, priority 2021, published 2025) can be followed below.

Series [1] can be described thus: On and off rates of aptamer binding to DFHO. The conditions noted are these: 50 nM RNA. The method, then:
FIGS. 7A-7H provide photophysical and biophysical characterization of Squash. […] Excess RNA was used to ensure binding of nearly all fluorophore. […] Data represent mean values±s.d. for n=3 independent experiments. […] The fluorescence signal trace was fitted with a monoexponential curve to extract kobs. kobs was plotted as a function of total RNA (50 nM RNA) and fluorophore concentration. kon and koff were extracted as the slope and intercept, respectively. Squash koff (0.014±0.008 s^−1) is very similar to that of Corn (0.018±0.002 s^−1). kon for Squash-DFHO (162300±8100 M^−1 s^−1) is seven-times higher than Corn-DFHO (23000±3000 M^−1 s^−1) which could be due to the high folding of Squash. […]
To measure on and off rates of Squash binding to DFHO, the same protocol that was reported previously to measure kinetic rates for Spinach-DFHBI was used (Han et al., “Understanding the Photophysics of the Spinach-DFHBI RNA Aptamer-Fluorogen Complex to Improve Live-Cell RNA Imaging,” J. Am. Chem. Soc. 135:19033-19038 (2013), which is hereby incorporated by reference in its entirety). Briefly, 50 nM RNA was mixed with different amounts of DFHO and binding kinetics was monitored on the fluorimeter as fluorescence signal increases. Each fluorescence signal trace was fitted with a monoexponential curve and the observed rate constant (kobs) was extracted. […]

Series [2] in a line: Photophysical properties of fluorophores and RNA-fluorophore complexes (Squash study). Type of series: physicochemical. In short, it runs like this: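 Gel-purified RNAs in 40 mM HEPES-KOH pH 7.4, 100 mM KCl, 0.5 mM MgCl2, with RNA in excess over fluorophore for absorption, excitation and emission spectra. Quantum yields used 10 μM RNA and 0.2 μM fluorophore, from integrated emission versus Broccoli-DFHBI-1T or Corn-DFHO.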

Series [3] in a line: In vitro folding of RNAs. Type of series: physicochemical. The settings on record: 40 mM HEPES-KOH (pH 7.4), 100 mM KCl, 0.5 mM MgCl2. The method, then:
Briefly, the fluorescence intensities of two solutions were compared: one having excess fluorophore and limiting RNA, and the other with excess RNA and limiting fluorophore. This allows calculation of the percent of the aptamer that is folded. For these experiments, 0.2 μM of fluorophore (or RNA) and 10 μM of RNA (or fluorophore) was used. The signal from the limiting RNA condition was divided by the signal from the limiting fluorophore condition to determine the fraction folded.
To prepare this complex, 10 μM Squash is incubated with 0.2 μM DFHO. By having large excess of Squash, there is likely to be enough folded Squash to form 0.2 μM Squash-DFHO complex. Next, 0.2 μM Squash is incubated with excess (10 μM) DFHO.

Series [4] in a line: Potassium-dependence assay. The series is classed as physicochemical. The conditions noted are these: buffers with K+, Na+ or Li+. On the procedure:
For potassium-dependence assay, separate buffers were prepared for K^+, Na^+ and Li^+. HEPES solution was neutralized with KOH, NaOH or LiOH to generate a 1 M solution (pH 7.4). RNA (1 μM final) was diluted in a buffer containing 40 mM HEPES (pH 7.4) and 0.5 mM MgCl2. Then the salts (KCl, NaCl or LiCl) were added to a final concentration of 100 mM to the corresponding solutions. Finally, DFHBI-1T or DFHO was added to the RNA solution at a final concentration of 10 μM and incubated for 20 minutes. The fluorescence was measured on a FluoroMax-4 fluorimeter.

“Also recorded” adds a separate entry of the source.

B1: Squash: fluorogenic RNA aptamer evolved from the add A-riboswitch aptamer, binds DFHBI-1T and DFHO; SEQ ID NO: 12 (SEQ ID NO: 1) (nucleic acid)
chain: AGGUGAGCCCAAUAAUACGGUUUGGGUUAGGAUAGGAAGUAGAGCCGUAAACUCUCUAAGCG
modifications: RNA, backbone not given here
Turning to B1, the off-rate constant (koff) in series [1] came to 0.014 ± 0.008 s⁻¹. Further, in series [2], the “Quantum yield with DFHBI-1T” value is on record as 0.71 and the “Quantum yield with DFHO” value is given as 0.60. In addition, in series [2] (10 μM RNA, 1 μM DFHO), the “Emission maxima with DFHO” value is listed as 562 nm. The “Abs max in complex with DFHBI-1T” value in series [2] (50 μM RNA, 5 μM DFHBI-1T) is 450 nm. Also, the “% folded in vitro” value in series [3] is on record as “approximately 80%”. Further, in series [4], the “Fluorescence dependence on K+” value is recorded as “fluorescent in K^+-free buffers; also recorded: not dependent on potassium”.

A word on the koff: it is the first-order rate constant of dissociation. Read a high koff as a short-lived complex.
